The subject of this data set is CC(=O)SCCNC(=O)CCNC(=O)[C@H](O)C(C)(C)COP(=O)(O)OP(=O)(O)OC[C@H]1O[C@@H](n2cnc3c(N)ncnc32)[C@H](O)[C@@H]1OP(=O)(O)O. In words: purified protein, by the assay type. To be noted: other: substrate varied, all other reagents saturating, 37° C., pH 7.5.

One substance from patent publication US7211423B2, “Acetyl CoA carboxylase 2 sequences and methods” (Bristol-Myers Squibb Co., priority 2004, dated 2007) can be followed below.

Sequence of recombinant human ACC2 (Homo sapiens; V2141I) (chain, as listed by the source V2141I): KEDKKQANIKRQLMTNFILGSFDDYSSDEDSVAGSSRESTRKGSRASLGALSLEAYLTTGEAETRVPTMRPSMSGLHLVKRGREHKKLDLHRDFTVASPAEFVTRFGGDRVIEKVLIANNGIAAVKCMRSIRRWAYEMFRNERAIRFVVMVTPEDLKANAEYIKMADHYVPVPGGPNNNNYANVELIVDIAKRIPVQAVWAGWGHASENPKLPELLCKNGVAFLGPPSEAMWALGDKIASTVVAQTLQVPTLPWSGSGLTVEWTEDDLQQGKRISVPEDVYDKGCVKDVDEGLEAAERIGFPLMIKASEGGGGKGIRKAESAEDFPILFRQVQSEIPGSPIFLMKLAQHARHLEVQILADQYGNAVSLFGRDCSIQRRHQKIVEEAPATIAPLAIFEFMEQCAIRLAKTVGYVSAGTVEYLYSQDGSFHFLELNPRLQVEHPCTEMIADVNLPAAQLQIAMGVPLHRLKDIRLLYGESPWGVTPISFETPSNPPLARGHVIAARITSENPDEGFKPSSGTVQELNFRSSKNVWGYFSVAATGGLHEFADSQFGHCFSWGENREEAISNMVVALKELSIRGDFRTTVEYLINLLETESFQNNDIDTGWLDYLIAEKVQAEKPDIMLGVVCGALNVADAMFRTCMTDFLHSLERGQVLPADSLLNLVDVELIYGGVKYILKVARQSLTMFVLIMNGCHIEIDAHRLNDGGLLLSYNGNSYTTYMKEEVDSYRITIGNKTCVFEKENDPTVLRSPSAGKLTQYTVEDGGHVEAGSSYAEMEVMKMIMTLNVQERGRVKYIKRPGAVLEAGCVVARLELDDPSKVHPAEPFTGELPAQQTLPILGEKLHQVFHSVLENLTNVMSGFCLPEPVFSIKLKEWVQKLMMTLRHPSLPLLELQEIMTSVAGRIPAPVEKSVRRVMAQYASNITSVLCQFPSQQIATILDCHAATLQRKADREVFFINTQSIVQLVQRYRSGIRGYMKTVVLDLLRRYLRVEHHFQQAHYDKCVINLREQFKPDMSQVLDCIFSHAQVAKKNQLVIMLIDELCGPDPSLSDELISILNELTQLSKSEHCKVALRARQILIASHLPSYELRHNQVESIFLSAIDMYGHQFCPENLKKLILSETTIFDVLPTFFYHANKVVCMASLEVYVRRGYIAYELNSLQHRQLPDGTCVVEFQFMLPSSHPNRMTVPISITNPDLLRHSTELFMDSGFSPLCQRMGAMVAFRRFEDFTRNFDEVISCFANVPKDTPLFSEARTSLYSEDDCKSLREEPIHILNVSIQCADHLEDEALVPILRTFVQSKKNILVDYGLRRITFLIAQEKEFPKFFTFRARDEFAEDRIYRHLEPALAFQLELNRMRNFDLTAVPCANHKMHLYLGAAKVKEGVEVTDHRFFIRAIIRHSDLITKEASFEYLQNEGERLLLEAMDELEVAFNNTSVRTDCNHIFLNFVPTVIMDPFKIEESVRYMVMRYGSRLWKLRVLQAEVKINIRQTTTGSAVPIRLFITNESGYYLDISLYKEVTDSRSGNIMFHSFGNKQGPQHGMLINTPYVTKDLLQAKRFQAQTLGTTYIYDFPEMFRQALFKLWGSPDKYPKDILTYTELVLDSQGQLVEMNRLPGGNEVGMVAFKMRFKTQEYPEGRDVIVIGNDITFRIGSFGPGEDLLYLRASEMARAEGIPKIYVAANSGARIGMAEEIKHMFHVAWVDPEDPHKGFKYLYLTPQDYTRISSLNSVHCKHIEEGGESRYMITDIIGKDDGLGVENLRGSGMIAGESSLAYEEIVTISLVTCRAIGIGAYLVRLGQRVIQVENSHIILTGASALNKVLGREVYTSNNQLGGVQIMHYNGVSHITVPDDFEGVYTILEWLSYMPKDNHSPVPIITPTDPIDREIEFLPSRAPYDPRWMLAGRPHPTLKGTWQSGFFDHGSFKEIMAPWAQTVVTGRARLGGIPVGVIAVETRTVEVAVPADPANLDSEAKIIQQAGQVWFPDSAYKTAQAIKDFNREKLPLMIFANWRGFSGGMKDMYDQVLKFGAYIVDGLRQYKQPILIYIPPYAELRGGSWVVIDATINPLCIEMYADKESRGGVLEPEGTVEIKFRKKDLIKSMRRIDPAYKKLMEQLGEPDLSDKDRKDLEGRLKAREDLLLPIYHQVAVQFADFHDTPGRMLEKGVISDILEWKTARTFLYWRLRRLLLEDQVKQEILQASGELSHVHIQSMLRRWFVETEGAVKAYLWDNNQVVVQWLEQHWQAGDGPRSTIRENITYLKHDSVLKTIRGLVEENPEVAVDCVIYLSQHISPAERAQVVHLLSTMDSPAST

One may read the Km as the concentration of substrate that gives half-maximal velocity. For the substance “recombinant human ACC2 (Homo sapiens; V2141I)”, the Km was determined as 23 µM.
